Data as given in patent US20130052128A1 (University of California, published 2013).
Numbering of substitutions follows the chain as printed.

What was measured:
[1] = target: T1, Human soluble uPAR (residues 1-277) (human, UniProt Q03405 23-299); assay: equilibrium SPR (Biacore 1000), IgG immobilized on a CM5 chip, soluble uPAR as analyte, one site binding model
T1 construct: also called soluble human uPAR

[2] = target: T1, Human soluble uPAR (residues 1-277); assay: equilibrium SPR (Biacore), IgG immobilized, soluble uPAR as analyte (FIG. 4)
[3] = target: T2, Membrane-bound human uPAR on cells (human, UniProt Q03405 23-305); assay: in vivo imaging, 2 nmol labelled IgG, 48 hours after injection
T2 construct: whole, on cells; Also used for endogenous uPAR in H1299 lysates (co-immunoprecipitation) and in tumor xenografts and sections; also called cell surface uPAR; CD87
T2 sequence (Q03405 23-305): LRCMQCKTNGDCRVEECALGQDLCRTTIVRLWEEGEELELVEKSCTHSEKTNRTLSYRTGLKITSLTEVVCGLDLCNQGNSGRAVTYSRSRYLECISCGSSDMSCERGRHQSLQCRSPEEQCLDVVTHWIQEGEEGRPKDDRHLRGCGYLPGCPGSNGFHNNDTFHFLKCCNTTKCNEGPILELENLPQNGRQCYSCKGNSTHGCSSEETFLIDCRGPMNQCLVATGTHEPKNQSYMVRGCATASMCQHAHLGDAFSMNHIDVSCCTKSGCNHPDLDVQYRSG

T1 sequence (Q03405 23-299): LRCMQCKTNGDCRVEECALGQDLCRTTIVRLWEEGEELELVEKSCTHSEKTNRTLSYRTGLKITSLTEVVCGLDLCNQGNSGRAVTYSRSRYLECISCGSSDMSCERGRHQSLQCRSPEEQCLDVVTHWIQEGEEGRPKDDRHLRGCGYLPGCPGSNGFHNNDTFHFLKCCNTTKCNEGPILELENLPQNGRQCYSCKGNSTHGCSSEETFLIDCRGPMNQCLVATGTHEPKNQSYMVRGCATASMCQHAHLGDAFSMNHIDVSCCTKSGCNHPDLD

B1: 1A8 IgG (antibody, V domains shown)
VH: QVQLQQSGPGLVKPSQTLSLTCAISGDSVSSNSAAWNWIRQSPSRGLEWLGRTYYRSKWYNDYAVSVKSRITINPDTSKNQFSLQLNSVTPEDTAVYYCTRDPGGALDDSFDIWGQGTMVTVSS
VL: DVVMTQSPASLSVSVGDRVTLTCQASQVINNHLNWYQQQPGKAPKLLVYDASNLETGVPSRFSGSGSGTDFTFTISGLQPEDIATYYCQQSDNLPLTFGGGTKLEIKR
notes: also called 1A8 IgG1; not shown: human IgG1 constant region of vector pTT5-SP-H1
- Kd [1]: 23.8 nM

B2: 2G10 IgG (antibody, V domains shown)
VH: B1 VH with T72I, T100A, A106P
VL: DVVMTQSPLSLPVTPGEPASISCRSSQSLLRSNGYNYLDWYLQKPGQSPQLLIYLGSIRASGVPDRFSGSGSGTDFTLRISRVEAEDVGVYYCMQALQTPFTFGQGTKLEIKR
modifications: Alexa Fluor 680 (about 15 dyes per IgG) or DOTA-111In in the imaging experiments. It is unlabelled in SPR and flow cytometry.
notes: Used with an Alexa Fluor 680 or 111In-DOTA label in the in vivo imaging; also called 2G10 IgG1; DOTA-2G10 IgG
- Kd [1]: 40.5 nM
- Kd [2]: ~40.5 nM

B3: 2E9 IgG (antibody, V domains shown)
VH: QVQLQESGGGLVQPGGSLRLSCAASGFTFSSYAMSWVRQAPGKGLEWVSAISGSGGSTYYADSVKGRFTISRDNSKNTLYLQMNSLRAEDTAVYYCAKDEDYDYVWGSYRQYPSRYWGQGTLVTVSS
VL: QSVLTQPPSVSVSPGQTASITCSGDNLGYKYASWYQQKPGQSPVLIIYQDKKRPSGIPERFSGSNSGNTATLTISGTQAMDEADYYCQAWDSSTSVVFGGGTKLTVLG
notes: also called 2E9 IgG1; not shown: human IgG1 constant region of vector pTT5-SP-H1
- Kd [1]: 9.2 nM

B4: 3C6 IgG (antibody, V domains shown)
VH: QVQLQQWGAGLLKPSETLSLTCAVYGGSFSGYYWSWIRQPPGKGLEWIGEINHSGSTNYNPSLKSRVTISVDTSKNQFSLKLSSVTAADTAVYYCARGRRFGDFDYWGQGTLVTVSS
VL: QPVLTQPPSVSVAPGKTARITCGGNNIGSKSVHWYQQKPGQAPVLVVYDDSDRPPGIPERFSGSNSGNTATLTISRVEAGDEADYYCQVWDSSSDHSPFGTGTKVTVLG
notes: not shown: IgG constant region; the making of 3C6 IgG is not described
- binding result [3]: binds
